This series concerns the molecule itself. As to the kind of experiment: SEC.

B1: Csy3, MBP/6xHis-tagged (natural protein, Pseudomonas aeruginosa, UniProt Q02MM1 1-342, looked up)
chain: MSKPILSTASVLAFERKLDPSDALMSAGAWAQRDASQEWPAVTVREKSVRGTISNRLKTKDRDPAKLDASIQSPNLQTVDVANLPSDADTLKVRFTLRVLGGAGTPSACNDAAYRDKLLQTVATYVNDQGFAELARRYAHNLANARFLWRNRVGAEAVEVRINHIRQGEVARAWRFDALAIGLRDFKADAELDALAELIASGLSGSGHVLLEVVAFARIGDGQEVFPSQELILDKGDKKGQKSKTLYSVRDAAAIHSQKIGNALRTIDTWYPDEDGLGPIAVEPYGSVTSQGKAYRQPKQKLDFYTLLDNWVLRDEAPAVEQQHYVIANLIRGGVFGEAEEK
Consider B1, for which the binding result is “binds”.

For the origin of these results see publication PMC4935067 (Nature, 2015).
